Positions count from the first letter of the chain named.
How the values were obtained:
[1] = target: OFP-tagged human CTLA-4 on CHO cells (human) (UniProt P16410)
human CTLA-4-Fc (human) [2] = target: human CTLA-4-Fc (human) (UniProt P16410); test: competition ELISA: B7-2-Fc immobilized (blocked ligand), biotinylated CTLA-4-Fc at […], antibody varied
human CTLA-4-Fc (human) [3] = target: human CTLA-4-Fc (human) (UniProt P16410); test: competition ELISA; hB7-1-Fc coated at 0.5 µg/ml, biotinylated CTLA-4-Fc at […]
human CTLA-4-Fc (human) [4] = target: human CTLA-4-Fc (human) (UniProt P16410); test: flow cytometry, competition: biotinylated CTLA-4-Fc on CHO cells expressing mB7-2 (blocked ligand), antibody varied, PE-streptavidin
human CTLA-4-Fc (human) [5] = target: human CTLA-4-Fc (human) (UniProt P16410); test: competition ELISA: hCTLA-4-Fc coated at 1 µg/ml, blocked ligand biotinylated hB7-1-Fc at […], antibody varied
[6] = target: polyhistidine tagged human CTLA-4 (human) (UniProt P16410); test: flow cytometry, competition: 200 ng biotinylated polyhistidine-tagged CTLA-4 on CHO cells expressing human B7-1 (blocked ligand), antibody varied, PE-streptavidin
human CTLA-4-Fc (human) [7] = target: human CTLA-4-Fc (human) (UniProt P16410); test: flow cytometry, competition: biotinylated CTLA-4-Fc 200 ng/test on hB7-1-positive, FcR-negative L929 cells (blocked ligand), antibody varied, PE-streptavidin
human CTLA-4-Fc (human) [8] = target: human CTLA-4-Fc (human) (UniProt P16410); test: flow cytometry, competition: biotinylated CTLA-4-Fc on CHO cells expressing hB7-1 (blocked ligand), antibody varied, PE-streptavidin
human CTLA-4-Fc (human) [9] = target: human CTLA-4-Fc (human) (UniProt P16410); test: ELISA: antibody coated at varying doses, biotinylated CTLA-4-Fc at […], streptavidin-HRP
human CTLA-4-Fc (human) [10] = target: human CTLA-4-Fc (human) (UniProt P16410); test: BLI (Octet Red96); antibody on anti-hIgG-Fc biosensor, antigen in solution from 600 nM
human CTLA-4-Fc (human) [11] = target: human CTLA-4-Fc (human) (UniProt P16410); test: competition ELISA; hB7-2-Fc coated, biotinylated CTLA-4-Fc at […]
human CTLA-4-Fc (human) [12] = target: human CTLA-4-Fc (human) (UniProt P16410); test: competition ELISA: hCTLA-4-Ig immobilized at […], blocked ligand biotinylated hB7-1-Fc at […], antibody varied, avidin-HRP
[13] = target: human CTLA-4 on or in cells (T cells of Ctla4 h/h knock-in mice; CHO stable lines and 293T cells expressing hCTLA-4) (human) (UniProt P16410); test: cell-based or functional assay
human CTLA-4-Fc (human) [14] = target: human CTLA-4-Fc (human) (UniProt P16410); test: flow cytometry, competition: 200 ng hCTLA-4-Fc on CHO cells expressing mouse B7-1 (blocked ligand), antibody varied
[15] = target: T1, Recombinant mouse Ctla-4Fc protein (mouse, UniProt P09793 36-162, limits assumed); test: competition ELISA: B7-2 coated (blocked ligand), biotinylated mouse Ctla-4-Fc, antibody varied, avidin-HRP
T1 construct: Bought; also called biotinylated mouse Ctla-4-Fc; not shown: Fc part; not described

[16] = target: T1, Recombinant mouse Ctla-4Fc protein; test: competition ELISA: B7-1 coated (blocked ligand), biotinylated mouse Ctla-4-Fc, antibody varied, avidin-HRP
human CTLA-4-Fc (human) [17] = target: human CTLA-4-Fc (human) (UniProt P16410); test: BLI (Octet Red96)
[18] = target: polyhistidine tagged human CTLA-4 (human) (UniProt P16410); test: ELISA; His-hCTLA-4 coated at 0.5 µg/ml, varying antibody doses
[19] = target: T1, Recombinant mouse Ctla-4Fc protein; test: ELISA: plate bound mouse Ctla-4-Fc, antibody varied
[20] = target: T1, Recombinant mouse Ctla-4Fc protein; test: competition ELISA: mB7-2 coated (blocked ligand), biotinylated mouse Ctla-4-Fc, antibody varied
[21] = target: T1, Recombinant mouse Ctla-4Fc protein; test: ELISA, binding to soluble mouse Ctla-4-Fc; neither sheet nor legend says which component's concentration is on the axis
[22] = target: mouse Ctla-4 in cells (spleen CD3+CD4+ cells of Ctla4 m/m mice) (mouse) (UniProt P09793); test: cell-based or functional assay

Chain of polyhistidine tagged human CTLA-4 (human) (P16410 36-162 limits assumed): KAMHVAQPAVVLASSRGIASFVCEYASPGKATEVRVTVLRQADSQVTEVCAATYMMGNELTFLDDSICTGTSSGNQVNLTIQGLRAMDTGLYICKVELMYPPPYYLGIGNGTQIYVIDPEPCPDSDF
Chain of human CTLA-4-Fc (human) (P16410 37-161 limits assumed): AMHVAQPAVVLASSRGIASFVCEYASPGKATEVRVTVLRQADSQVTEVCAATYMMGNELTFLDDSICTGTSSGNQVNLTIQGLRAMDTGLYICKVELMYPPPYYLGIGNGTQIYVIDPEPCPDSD
Chain of OFP-tagged human CTLA-4 on CHO cells (human) (P16410 36-223): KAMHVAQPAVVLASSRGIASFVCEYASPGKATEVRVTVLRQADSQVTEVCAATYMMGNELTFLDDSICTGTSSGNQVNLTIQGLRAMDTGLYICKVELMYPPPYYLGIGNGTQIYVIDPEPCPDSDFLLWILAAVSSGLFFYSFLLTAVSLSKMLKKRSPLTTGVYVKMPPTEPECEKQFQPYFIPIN
Chain of human CTLA-4 on or in cells (T cells of Ctla4 h/h knock-in mice; CHO stable lines and 293T cells expressing hCTLA-4) (human) (P16410 36-223): as above

B7-H2-GFP on transfected P815 cells (ligand)
% GFP+OFP+ cells (upper right quadrant), Mix-0 h [1]: 0.19% | % GFP+OFP+ cells (upper right quadrant), Mix-1 h [1]: 0.3% | % GFP+OFP+ cells (upper right quadrant), Mix-4 h [1]: 0.49%

L3D10 chimera antibody (human IgG1 Fc and the variable regions of mouse anti-human CTLA-4 mAb L3D10)
IC50 (read off the curve) (human CTLA-4-Fc (human) [2]): 0.1 µg/mL | IC50 (human CTLA-4-Fc (human) [3]): 3 µg/mL | lowest concentration with significant blocking (human CTLA-4-Fc (human) [3]): 0.2 µg/mL | IC50 (read off the curve) (human CTLA-4-Fc (human) [4]): 0.9 µg/mL | IC50 (read off the curve) (human CTLA-4-Fc (human) [5]): 0.2 µg/mL | IC50 (read off the curve) [6]: 2 µg/mL | IC50 (read off the curve) (human CTLA-4-Fc (human) [7]): 1 µg/mL | IC50 (read off the curve) (human CTLA-4-Fc (human) [8]): 8 µg/mL | EC50 (read off the curve) (human CTLA-4-Fc (human) [9]): 1 µg/mL | Kd (human CTLA-4-Fc (human) [10]): 2.3 nM | IC50 (human CTLA-4-Fc (human) [11]): 0.1 µg/mL | IC50 (read off the curve) (human CTLA-4-Fc (human) [12]): 0.4 µg/mL | level of hB7-2 on DC of human CD34+ reconstituted NSG mice [13]: 2.5 fold | IC50 (read off the curve) (human CTLA-4-Fc (human) [14]): 1 µg/mL

hamster anti-mouse Ctla-4 mAb 4F10 (antibody)
IC50 (read off the curve) [15]: 0.3 µg/mL | IC50 (read off the curve) [16]: 1 µg/mL

B1: HL12 (humanized L3D10 clone) (antibody, from another filing, V domains shown)
VH: QVQLQESGPGLVKPSETLSLTCTVSGFSLTSYGLSWIRQPPGKGLEWIGYIWYDGNTNFHPSLKSRVTISKDTSKNQFSLKLSSVTAADTAVYYCAKTEGHYYGSNYGYYALDYWGQGTSVTVSS
VL: DIQMTQSPSSLSASVGDRVTITCRASENIYSNLAWYQQKQGKAPKLLLYAATNLQDGVPSRFSGSGSGTDYTLTISSLQPEDFATYFCQHLWGTPYTFGQGTKLEIK
fold increase in off-rate against L3D10 (human CTLA-4-Fc (human) [17]): 4 fold | Kd (human CTLA-4-Fc (human) [10]): 7.2 nM | koff (human CTLA-4-Fc (human) [10]): 0.0016 s⁻¹ | kon (human CTLA-4-Fc (human) [10]): 230000 M⁻¹ s⁻¹ | fold reduction of binding at pH 4.5 against pH 7.0 (by increase of IC50) [18]: > 100 fold | fold reduction of binding at pH 5.5 against pH 7.0 (by increase of IC50) [18]: > 10 fold

B2: HL32 (humanized L3D10 clone) (antibody, from another filing, V domains shown)
VH: B1 VH with P61S, S62P, K71V, S120L
VL: B1 VL
fold increase in off-rate against L3D10 (human CTLA-4-Fc (human) [17]): 4 fold | Kd (human CTLA-4-Fc (human) [10]): 7.1 nM | koff (human CTLA-4-Fc (human) [10]): 0.0019 s⁻¹ | kon (human CTLA-4-Fc (human) [10]): 270000 M⁻¹ s⁻¹ | fold reduction of binding at pH 4.5 against pH 7.0 (by increase of IC50) [18]: > 100 fold | fold reduction of binding at pH 5.5 against pH 7.0 (by increase of IC50) [18]: > 10 fold

B3: anti-mouse Ctla-4 mAb 9H10 (antibody, from another filing)
scFv: YPYDVPDYAGAQPARSDIVMTQSPSSLAVSVGEKVTISCKSSQSLLYGSSHYLAWYQQKVGQSPKLLIYWASTRHTGIPDRFIGSGSGTDFTLSLSSVQAEDMADYFCQQYFSTPWTFGAGTRVEIKSGSGGGSGGGSGGGSQVQLLQSESELVKPGASVKLSCKTSGYTFTDYYIHWVKQKPGQGLEWIGLINPNNDGTNYNQKFQGKATLTADKSSSTAYMELNSLTFDDSVIYFCARASSRLRMARTTSDYYAMDYWGQGIQVTVSSVDSSGSGGCKPCICTVPEVSSVFIFPPKPKDVLTITLTPKVTCVVVDISKDDPEVQFSWFVDDVEVHTAQTQPREEQFNSTFRSVSELPIMHQDWLNGKEFKCRVNSAAFPAPIEKTISKTKGRPKAPQVYTIPPPKEQMAKDKVSLTCMITDFFPEDITVEWQWNGQPAENYKNTQPIMDTDGSYFVYSKLNVQKSNWEAGNTFTCSVLHEGLHNHHTEKSLSHSPGK
EC50 (read off the curve) [19]: 1 µg/mL

B4: anti-mouse Ctla-4 mAb 9D9 (antibody, V domains shown)
VH: EAKLQESGPVLVKPGASVKMSCKASGYTFTDYYMNWVKQSHGKSLEWIGVINPYNGDTSYNQKFKGKATLTVDKSSSTAYMELNSLTSEDSAVYYCARYYGSWFAYWGQGTLITVST
VL: DIVMTQTTLSLPVSLGDQASISCRSSQSIVHSNGNTYLEWYLQKPGQSPKLLIYKVSNRFSGVPDRFSGSGSGTDFTLKISRVEAEDLGVYYCFQGSHVPYTFGGGTKLEIK
IC50 (read off the curve) [20]: ~2 µg/mL | EC50 (read off the curve) [21]: ~0.4 µg/mL | level of mB7-1 on DC of WT mice [22]: 15%

— patent publication US20210047410A1 (ONCOLMMUNE, published 2021)
